Measurements published in paper PMC1180670.

Experiments:
[1] = system: S. pombe Translin (Schizosaccharomyces pombe); assay: EMSA
[2] = target: recombinant S.pombe Translin (S. pombe); assay: glycerol gradient centrifugation
human Translin = human Translin (Homo sapiens, UniProt Q15631 1-228); assay: EMSA
Chain of human Translin (Q15631 whole entry): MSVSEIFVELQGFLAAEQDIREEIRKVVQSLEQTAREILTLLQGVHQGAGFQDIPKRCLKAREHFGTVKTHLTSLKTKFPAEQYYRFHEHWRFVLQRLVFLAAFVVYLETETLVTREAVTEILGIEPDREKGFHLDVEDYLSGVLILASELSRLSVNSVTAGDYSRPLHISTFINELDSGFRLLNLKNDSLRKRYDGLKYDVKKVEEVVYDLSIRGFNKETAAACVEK

Molecule	Kd [1] [µM]	further results
GTGTGTGTGTGTGTGTGTGTGTGTGTGTGT [d(GT)15]	0.018	
GUGUGUGUGUGUGUGUGUGUGUGUGUGUGU [(GU)15]	0.003	
recombinant S.pombe Translin (natural protein)		stoichiometry N [2]: 8
GTGTGTGTGTGTGTGTGTGTGTGTGTGTGT (ssDNA) [d(GT)15]		binding signal (human Translin): ~2 Kd relative to (GU)15
